This is an account of results in publication PMC6423188, “HYNIC and DOMA conjugated radiolabeled bombesin analogs as receptor-targeted probes for scintigraphic detection of breast tumor” (EJNMMI Research, 2019).

Where a SMILES comes first, the peptide text is derived from it.

A short description of the series: in vitro. The conditions noted are these: rat, serum. Type of series: in vitro ADME. In outline: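 ^99mTc tracer incubated in fresh rat serum at 37 °C for 1 h, proteins precipitated with 10% trichloroacetic acid and centrifuged. Binding % = precipitate counts / (precipitate + supernatant counts) × 100; run in triplicate.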

On to `CCCC[C@H](NC(=O)[C@@H](Cc1ccc(O)cc1)NC(=O)[C@H](Cc1c[nH]cn1)NC(=O)[C@H]1CCCN1C(=O)[C@@H](NC(=O)[C@H](C)NC(=O)[C@H](Cc1c[nH]c2ccccc12)NC(=O)[C@H](CCC(N)=O)NC(=O)CCCNC(=O)CN1CCNCCNCCNCC1)C(C)C)C(N)=O` [99mTc-BN4, ^99mTc-DOMA-GABA-[Pro^11Tyr^13Nle^14]-BN(7-14)NH2, metal not drawn] (HELM PEPTIDE1{[O=C(CN1CCNCCNCCNCC1)[*:2]].[O=C(CCCN[*:1])[*:2]].Q.W.A.V.[dP].H.[dY].[Nle].[am]}$$$$V2.0), for which the fraction unbound at 1 h is 0.809.
